Experimental data from the Human Domainome abundance scans (Beltran et al. 2025).

B1: SAM and SH3 domain-containing protein 1, residues 630 to 700; numbered along this chain, O94885 (parent)
chain: GRPPQPKSVEDLLDRINLKEHMPTFLFNGYEDLDTFKLLEEEDLDELNIRDPEHRAVLLTAVELLQEYDSN

Variants of: B1
Assay: abundance fitness (aPCA) (normalised: wild type 0, dead -1); higher = more abundant; growth selection in yeast, the domain comes from the species named
Settings: Homo sapiens

Abundance fitness of substitutions, site by site:
E31: G 0.313; D 0.129; M -0.158; K 0.124; S 0.196; V -0.003; H 0.195; R 0.127; P -0.15; N 0.171; I -0.288; L -0.37; A 0.207; Y -0.124; Q 0.029; W -0.248; T 0.251
L38: S -0.005; P -0.857; H 0.029; I -0.76; K 0.117; Y -0.117; T 0.23; Q 0.175; V -0.492; A -0.063; N 0.054; D -0.175; M -0.011; F -0.234; G -0.061; E 0.03; R -0.041
N28: S -0.395; F -0.426; I -1.08; T -0.831; G -0.157; Y -0.208; E -0.647; L -0.855; P -0.856; D -0.812; A -0.006; R -0.607; C -0.582; M -0.687; V -0.939; H 0.109; K -0.426; W -0.553; Q -0.644
T35: Y -0.587; H 0.022; R 0.135; M -0.312; S 0.104; L -0.515; N -0.159; A 0.067; V -0.492; G -0.442; F -0.911; C -0.206; D 0.108; E -0.211; W -0.973
F25: H -0.924; S -0.706; W -0.891; I -0.687; N -0.612; Q -0.778; V -0.758; C -0.701; L -0.266; D -0.672; E -0.623; G -0.882; Y -0.893; T -0.59; A -0.837; K -0.784; M -0.676; P -0.925
L39: G -0.812; A -0.881; E -0.771; D -0.799; F -0.973
F36: Q -0.705; Y -0.878; R -0.794; C -0.849; W -0.712; P -0.9; S -0.749; M -0.354; H -0.638; E -0.678; K -1.19; G -0.642; L -0.365; T -0.64; I -0.531; A -0.717; V -0.495; N -0.719
F27: Y 0.122; C 0.272; G 0.166; S 0.406; R 0.38; I 0.157; P -0.655; N 0.418; T 0.341; E 0.491; K 0.507; L 0.346; D 0.446; V 0.235; W -0.449; M 0.327; Q 0.393; H 0.246
P23: V -0.433; Q -0.017; R -0.225; K 0.043; F -0.434; L -0.056; H -0.243; E 0.282; M -0.268; S 0.038; I -0.398; G 0.039; D 0.199; N 0.102; A 0.113; Y -0.271; W -0.103; T -0.019
D34: M -0.518; A -0.145; R -0.465; C -0.468; Q -0.116; W -0.704; H -0.426; P -0.664; I -0.793; Y -0.679; S -0.158; E 0.041; L -0.67; V -0.719; K -0.291; T -0.415; N -0.123
T24: M -0.379; S -0.464; V -0.179; Q -0.544; P -0.88; N -0.314; H -0.698; K -0.079; W -0.892; D -0.622; R -0.367; E -0.435; G -0.713; C -0.474; L -0.367; Y -0.98
M22: W 0.281; T 0.009; V 0.046; E -0.213; S -0.375; P -0.999; D -0.749; Q -0.366; I 0.131; F 0.081; N -0.503; H -0.313; L 0.377; Y 0.277; K -0.252; G -0.346; R -0.612; C -0.135
L26: D -0.667; R -0.111; K 0.034; C -0.464; S -0.337; M -0.043; Q -0.11; E -0.188; F -0.167; T -0.225; Y -0.181; P -0.825; H -0.44; G -0.697; W -0.533; A -0.117; V 0.034
D32: N -0.085; V -0.788; A -0.579; T 0.172; I -0.568; C -0.292; Y -0.776; W -0.75; Q -0.382; L -0.767; R -0.268; E -0.275; K -0.197; G -0.585; S 0.094; F -0.803; M -0.682; H -0.187
K19: W -0.607; Y -0.532
L33: C -0.881; N -0.764; S -0.812; T -0.828; A -0.883; E -0.962; D -0.76; P -0.896; W -1.19; F -0.697; V -0.607; Y -1.15; I -0.187; K -1; M -0.64; R -0.926; Q -0.73; H -0.791
G29: P -0.967; C -1.12; Q -0.959; D -0.837; F -1.2; H -0.831; N -0.762; E -0.844; M -0.739; L -0.907; A -0.806; K -0.925; I -0.893; T -0.917; W -0.937; Y -0.895; S -0.834; V -1.17
K37: G -0.669; I -0.848; F -0.946; R -0.211; E -0.64; N -0.799; M -0.16; A -0.226; C -0.449; T -0.615; Q -0.478; Y -1.11; L -0.555; D -0.791; S -0.337; H -0.76
E20: H -0.484; C -0.124; D -0.498; S -0.332; W -0.879; I -0.244; G -0.673; V -0.203; Y -0.84; N -0.455; M -0.212; T -0.48; K -0.755; R -0.596; F -0.502; L -0.559; A -0.699
Y30: K -0.901; G -0.987; F 0.058; D -0.705; R -0.891; L -0.557; I 0.042; C -0.704; H -0.737; M -0.568; N -0.833; A -0.92; E -0.515; T -0.906; W -0.012; S -0.706; P -0.767
H21: E -0.689; N -0.689; V -0.607; K -0.712; S -0.785; C -0.536; M -0.085; W -0.248; P -0.798; T -0.685; A -0.85; D -0.889; R -0.921; I -0.459; F -0.134
